Experimental data as given in publication PMC2572727, “The GET Complex Mediates Insertion of Tail-Anchored Proteins into the ER Membrane” (Cell, 2008).

Molecular target: T1, purified Get1-PC and Get2-HA reconstituted in proteoliposomes (yeast, UniProt P53192 1-235; P40056 1-285)
T1 construct: Get1 (Mdm39), yeast; construct details in the Supplemental Data; Get2 (Rmd7, Hur2), yeast; also called +Get1/+Get2; Get1/Get2 complex; source: copurified from yeast, reconstituted into proteoliposomes
T1 sequence (looked up) 1: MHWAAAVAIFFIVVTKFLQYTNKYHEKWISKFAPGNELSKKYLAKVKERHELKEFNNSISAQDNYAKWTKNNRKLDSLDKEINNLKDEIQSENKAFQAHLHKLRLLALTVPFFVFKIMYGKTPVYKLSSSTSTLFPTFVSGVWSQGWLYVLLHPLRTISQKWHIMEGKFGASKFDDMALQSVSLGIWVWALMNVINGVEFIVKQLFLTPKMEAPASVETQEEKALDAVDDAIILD
T1 sequence (looked up) 2: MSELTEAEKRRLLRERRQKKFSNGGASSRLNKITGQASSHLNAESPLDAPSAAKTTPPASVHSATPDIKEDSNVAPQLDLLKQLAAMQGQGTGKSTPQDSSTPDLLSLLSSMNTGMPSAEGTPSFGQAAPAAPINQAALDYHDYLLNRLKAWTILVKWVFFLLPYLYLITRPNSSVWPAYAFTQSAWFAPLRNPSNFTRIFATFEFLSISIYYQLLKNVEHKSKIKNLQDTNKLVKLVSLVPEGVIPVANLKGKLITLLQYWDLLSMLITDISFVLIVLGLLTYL
Assay: co-sedimentation; recombinant Get3 incubated with proteoliposomes reconstituted with purified Get1-PC and Get2-HA or with Phs1 as control; Optiprep gradient fractions blotted with αGet3 or αPhs1
Conditions: both partners purified

binding result: binds
B1: recombinant Get3 ATPase (enzyme, yeast, UniProt Q12154 1-354, looked up)
chain: MDLTVEPNLHSLITSTTHKWIFVGGKGGVGKTTSSCSIAIQMALSQPNKQFLLISTDPAHNLSDAFGEKFGKDARKVTGMNNLSCMEIDPSAALKDMNDMAVSRANNNGSDGQGDDLGSLLQGGALADLTGSIPGIDEALSFMEVMKHIKRQEQGEGETFDTVIFDTAPTGHTLRFLQLPNTLSKLLEKFGEITNKLGPMLNSFMGAGNVDISGKLNELKANVETIRQQFTDPDLTTFVCVCISEFLSLYETERLIQELISYDMDVNSIIVNQLLFAENDQEHNCKRCQARWKMQKKYLDQIDELYEDFHVVKMPLCAGEIRGLNNLTKFSQFLNKEYNPITDGKVIYELEDKE
notes: Get3 (Arr4), yeast homolog of Asna1/TRC40, soluble cytosolic ATPase; also called Arr4; source: purified from Escherichia coli (Metz et al., 2006)
